Experimental data: paper PMC3781949 (Molecular microbiology, 2011)

Target: the molecule itself
Test: SPR

B1: Maf-His6, purified recombinant Maf (natural protein, B. subtilis, UniProt Q02169 1-189, looked up)
chain: MTKPLILASQSPRRKELLDLLQLPYSIIVSEVEEKLNRNFSPEENVQWLAKQKAKAVADLHPHAIVIGADTMVCLDGECLGKPQDQEEAASMLRRLSGRSHSVITAVSIQAENHSETFYDKTEVAFWSLSEEEIWTYIETKEPMDKAGAYGIQGRGALFVKKIDGDYYSVMGLPISKTMRALRHFDIRA
binding result: binds
